This note sets out measurements from publication doi:10.1101/2025.09.24.678339.

In experiment [1] the target is DNMT3A2 D876A, full-length, purified (human). In words: SEC + other: mass photometry.
The target is the same in experiment [2]. In words: SEC. For orientation: SEC sorts molecules by how far they enter the pores of the column.
Experiment [3] deals with DNMT3A2 D876A/R882H, full-length, purified (human). In words: SEC.
The target in experiment [4] is DNMT3A2 L859F/D876A/R882H, full-length, purified (human). The experiment is described as follows: SEC.
Experiment [5] addresses DNMT3A2 L859F/R882H, full-length, purified (human). The experiment is described as follows: SEC.
Experiment [6] concerns the target DNMT3A2 R882H, full-length, purified (human). The experiment is described as follows: SEC.
Experiment [7] deals with DNMT3A2 wild type, full-length, purified (human). In words: SEC + other: mass photometry.
For experiment [8] the target is unchanged. The experiment is described as follows: SEC.

By stoichiometry N is commonly meant a count of units in the complex or per binding partner.

For the substance “DNMT3A2 D876A, full-length, purified (enzyme)”, the stoichiometry N in experiment [1] and in experiment [2] was 2 in each case.

Take “DNMT3A2 D876A/R882H, full-length, purified (enzyme)”: the stoichiometry N in experiment [3] was 2.

The substance “DNMT3A2 L859F/D876A/R882H, full-length, purified (enzyme)” came in with a stoichiometry N in experiment [4] of 2.

With “DNMT3A2 L859F/R882H, full-length, purified (enzyme)”, in experiment [5], the stoichiometry N came to 4.

In experiment [6], “DNMT3A2 R882H, full-length, purified (enzyme)” returned a stoichiometry N of 4.

As for “DNMT3A2 wild type, full-length, purified (enzyme)”, the stoichiometry N in experiment [7] and in experiment [8] was 4 each time.
